The nature of the series: soluble on expression in E. coli; label from the status in PepcDB or PDB records.
Regarding “MHHHHHHSSGLVPRGSGMKETAAAKFERQHMDSPDLGTDDDDKAMGCQKAVSPAAETAAVSPSVDAARLEPRVEERDGFWVLKEEFRSGINPAEKVKIEKDPMKLFIEDGISDLATLSMEEVDKSKHNKDDIDVRLKWLGLFHRRKHHYGRFMMRLKLPNGVTTSEQTRYLASVIKKYGKDGCADVTTRQNWQIRGVVLPDVPEIIKGLESVGLTSLQSGMDNVRNPVGNPLAGIDPHEIVDTRPFTNLISQFVTANSRGNLSITNLPRKWNPCVIGSHDLYEHPHINDLAYMPATKNGKFGFNLLVGGFFSIKRCEEAIPLDAWVSAEDVVPVCKAMLEAFRDLGFRGNRQKCRMMWLIDELGMEAFRGEVEKRMPEQVLERASSEELVQKDWERREYLGVHPQKQQGLSFVGLHIPVGRLQADEMEELARIADVYGSGELRLTVEQNIIIPNVENSKIDSLLNEPLLKERYSPEPPILMKGLVACTGSQFCGQAIIETKARALKVTEEVQRLVSVTRPVRMHWTGCPNSCGQVQVADIGFMGCMTRDENGKPCEGADVFVGGRIGSDSHLGDIYKKAVPCKDLVPVVAEILINQFGAVPREREEAE”, the “soluble on expression in E. coli” value is reported as “soluble”. For “MAHHHHHHMMRRVYAPVFCSVAAARFAATSAAKKYDLFGYEVDTNTAPWIEKIKKCKYYDEAGEVLVNMNVSNCPPDIATYNATLQCIYQSPSKQSTPVDNESKFCAMMDLLEEMQHRNRLKPNEESWTWVMKECVKSGQFRLGYCIQQVMETECKGCPADLVKANEANAQKAKTEGKEHPGHLSQQAGLFDVKVE”, the “soluble on expression in E. coli” value is listed as “not soluble”.

Turning to “MLKIFNTLTRQKEEFKPIHAGEVGMYVCGITVYDLCHIGHGRTFVAFDVVARYLRFLGYKLKYVRNITDIDDKIIKRANENGESFVAMVDRMIAEMHKDFDALNILRPDMEPRATHHIAEIIELTEQLIAKGHAYVADNGDVMFDVPTDPTYGVLSRQDLDQLQAGARVDVVDDKRNPMDFVLWKMSKEGEPSWPSPWGAGRPGWHIECSAMNCKQLGNHFDIHGGGSDLMFPHHENEIAQSTCAHDGQYVNYWMHSGMVMVDREKMSKSLGNFFTVRDVLKYYDAETVRYFLMSGHYRSQLNYSEENLKQARAALERLYTALRGTDKTVAPAGGEAFEARFIEAMDDDFNTPEAYSVLFDMAREVNRLKAEDMAAANAMASHLRKLSAVLGLLEQEPEAFLQSGAQADDSEVAEIEALIQQRLDARKAKDWAAADAARDRLNEMGIVLEDGPQGTTWRRK”, the “soluble on expression in E. coli” value is “soluble”. For “MGHHHHHHGGHMSLIISSLTNPNFKVGLPKVIAEVCDYLNTLDLNALENGRHDINDQIYMNVMEPETAEPSSKKAELHHEYLDVQVLIRGTENIEVGATYPNLSKYEDYNEADDYQLCADIDDKFTVTMKPKMFAVFYPYEPHKPCCVVNGKTEKIKKLVVKVPVKLIEGGS” the value was “soluble”; for “MSLNFPGSSSLLIVGASTRAAACSAVRAGFQPVCADQFADRDLRAVSEVVIKIDEHCHWLEEILKREPQNWIYTGALENRPEVINAINQRHTLLGNAEESLKKVRDPFFLQDMLVDQPIAISPCLPVDTQTPPRELWLRKPRLSAAGQGISFADSHTTDPTDSTQYYLQQFQPGIPLSALYLACDDCCVLIGTAVQFIGNRALHATGFQFCGGMTLPSMPPEWRHALGKLGHNIARGCHLRGLFGCDLIWNPDGQPGLWLTEVNPRYTALTELFELQYCLPLLRWHFAACRSCDASSAVAGTLADELIQLLKTKEKRTLSTVSKGIMYAPTDLTTPDLPWESSPRQVAWQIPTIADVPDRGTRIPAGTPVCTLYGTGDDQGECLLSMADQILRCQGQIQPELPRDLSRNEVRNMLWPRKESEKLNFSGFFSSRNVSGSFLEDEGHHHHHH”, “soluble”. For “MGSDKIHHHHHHMQQLQAAVALHKQGELDKAEAIYQQVLAVDVNNFYALNFCGSIKREKKRFDEGIDFLSRAISLQPDNPDAIYNLGNVFKDSERWDEAISCYEKTLGLRAESPEALNNLGICLKEVERFEYSEIVLRRVVSMQPGLAGAWLNLGNTFKEQEKYSEAKASYRNAIDLKPDFEAAYFALGLVLKEEGKVEEAIASYRKAIELKPDFADVYFALGLVLKEAGEFEAARQIVSALSTVNAMEDSTLLSFSLCDLVFDWYHRRVLNLLEDVEMTALSGASAPFSAYETVRKIQPQLFPPLFLKGEGDRANEKHLYRNGYLVEDEILPEDLCAEFVNGFEGANAMSAALIRAVSEKGVLGSVLGKIFKHTDFPHLVWNCIYFAKGPDDQAISDAWHYDNHYNVWTPKLMIYLNSQREEGGATEFVDTSLSRRLSEETDYMGFIWQRESYADRVKGSVKDLGLDPATLDPDHYTFSPDHAGSGVWFCPSRVLHRGVSPKKGVRHVLSFSLTPLPHDCGWSIDQCVDKSIEILQDKINKGMQKSDVNPYWIPAEAGYA” the value was “not soluble”; for “MGTLWWNGTFFTMVHEGDQVEAVFTEDGKIVAIGTAEELRQRYSTRINQEMNCDGAYVYPGFVDSHLHMIGLEHHHHHH”, “not soluble”. As to “MNYKSCFDIIGPIMIGPSSSHTAGALAIGLAARKLFGGTPEKIVIKYYESFADTHKGHGTDFAIIGGILGLAADDANVTQSIELAEEQGIEIQFLEMSEESPVKHANTACVTLSDATHEIHLTGISVGGGTIEVKYIELDGFNVQLHGPLPILLVINQEEQAMQAFKDTLQKNNIQVNAVSRYVEGNQILFIFDLDSAPISSVKEQLFSLDDTSKIILL”, the “soluble on expression in E. coli” value is given as “not soluble”.

Turning to “ERVPEGSIRVAIASNNGEQLDGHFGSCLRFLVYQVSAKDASLVDIRSTLDVALAEDKNAWRVEQIQDCQVLYVVSIGGPAAAKVVRAGIHPLKKPKGCAAQEAIAELQTVMAGSPPPWLAKLVGVSAEERVRFSVSDDEDEAARA”, the “soluble on expression in E. coli” value was “soluble”. Regarding “MGSDKIHHHHHHMEFEFCVQDPTDPGTRYLYEAIIGAAADATTWRGMYAFATRGGVDQLIEDPVVHEFMRRGGEIDLIVGIDAVTNRQTLERMQALEERHEHFHPKVFWNTTGGLFHPKISHFGYADGRTKLILGSGNLTPGGLRHNFEGYSVISGGRREAIDLSSLDAFIARHEADIRPIDQAALDRAALNIVRPVAALPGPRAPQLRPPRAVSREAVLDRILLAQVPAAGGRWSQVHFNTQITEQYFRVTDVATQRVYLTSIDAAGLRGEEEVRPVVFSQANGNHKIEIAAAKGLDYPDSPPLLVFRERQVRCFDYMLLMPDSPGYGELLGLSQALPTIGRGLRRAITDMATLSQAWPACPLLTAGDALDQTI”, the “soluble on expression in E. coli” value was “not soluble”. With “MTENQNGKVDPVAIRELISQGIPMKRKESEIKRSQSEEQCVESECPNDEPMSKDFSRVSRRERRKSDKGDYESLFICRNTLKNRKTIYIAKELQDTLAEIVMSMRNRDMTIGIYVENIILHHLETYKDEINRLAEMKFRKLL”, the “soluble on expression in E. coli” value is given as “not soluble”.

Consider “MSLRIDHSGSCVWLKMQKPRFSFAVLLPSETMRRQFTRNTSNMKTELTLLEQTLTLHRFPKRNNETLQAWDAGDEYLIQHVEQLALPESSHIVIINDHFGTLSCWFSQKHKVSMMSDSYIAHQATQANLQQNQRPPVQLLTTLDPVPNDASVVLLQLPKSNRHLVWILSQLRKALSPNIPIIAVNKAKEIHTSTLNLFEKHLGPTTTSLAWKKHRLVFSSATVNPANEVNPECGWSIEPYAITLTNLPNVYSGESLDLGSRFILEHLPADPTLEDFIDLGCGNGVLSVRLGQLNPQAKITCVDESFMAIASAQKNLHDNLGKRDIHCIANNCLDGFPAHSSSMIVCNPPFHQQQTITDHIAWQMFCDSKHVLKKGGKLWVIGNRHLGYDVKLARLFGKSHVRVIANNSKFVILQAIKSEGHHHHHH”, for which the “soluble on expression in E. coli” value was “not soluble”.

On to “MNTEVIHYIIRFLIGDESGNDQLLSRIGYTSKQSEMSRYSIVIRASNFFDSDIYGTDKAFPLLPLKEWEGVPLLFGEPTEELLEESDTLVLNADIVASTYFLISRYEEMYRRKLRDIHGRFPGRESLPFKAGFLQRPVVDEYGAILRTKIRQMGWPVKDPVPHFSMVNLTHDVDEPFEYRGWRSFARALIKERKSPFKAFRLAYANPASDRFFTFPRFVDWDKILRSKMPDCCRIIFFFKAPGKAPQDAPNYSLRKPLYQSLRSLVKNNGIVIGLHSNYSAGLNPELIGKQRKRLMSDTDMAVDCNRHHYLAAREPEDMQALISAGIRHDYTMGYADVAGFRLGTSRPVRFIMPSTRRLTELILHPLTLMDCTLHRQEYMGLDEATAIELCKELLMHTFIHGGEATLLWHNEYLSRDIHPWHARLYREVLRLIETMEEKQEEESFDYETAIDQ”, for which the “soluble on expression in E. coli” value is “not soluble”. For “MLLSVIITAQGRKGYVMQAVRSVLSQNIPKEDFEIIVSKDFKDDVIDEFLDGRAIVLNENHIRSGSRVASAVLQSSGKILVFLDDDDLFYPGKLREVKIVFSEMGVDYFKNSVKPVAESGDTVSYYQPAIKSDIFVKEPNEQDIRKLLKLRAGFNSSSISLKKDILVGYLDVLSKINLAVDSFYFFLYMSHSRPIYYSKKTLSLYRVLSKSTSRDVRNINAYAEFKSKFYELYSRDFETISEMASDGPCSKLAKTEFHLQMAYKWIFNTYRKEERPRMLHTLASSIYSHDPFIALPWPSFMKKIVQRREYFREKKLLSENTELEHHHHHH” the value was “not soluble”; for “MKFVAPEQAPEQAEVIKNTPFWPDVDLSEFRSVMRTDGTVTQPRLKQVVLTAISEVNAELYDFRNRQQMLGWRTLAEVPAEMLDGKSERIRHYHNAVFCWARAVLNERYQDYDATASGVKRGEELAEASGDLWRDARWAISRVQDVPHCTVELI”, “not soluble”; for “MSKLIITDNLEMLTEQGATRRRLLQAGLGACALLAMPAANAAYSRVYEKRVSLLNLHTGERVRTAYWERGKYIPEALRMIEKVLRDHRSGDIHRIDPRLLDLMQHLHHKTGNSKEFQVVSGYRSPATNAALSVQSHGVAKNSLHMQGKAIDIRLPGVPLHVLRRAAMSMHAGGVGYYPKSNFIHIDTGNVRYW”, “not soluble”.

Turning to “MGSDKIHHHHHHMALVRLSQIHFNFQTAAQPLFEDLNLTIAAGECHLIHGYTGCGKSTLLKLLQGILERPWEGEREIAEGATLGVVMQDPNVQLLRQTLGAEVAFALENLGVASSEMLLQVRSALRRVGLYISLDTPIASLSLGQRYRLMIAAQLVLEPDLLLLDEPWAQLDDQGVAELSAVLHQLKQQGVALLIVEHHRGVFKDLVTHRWQLSQGQLQALAPAECEATSEQVSWRESPAWPQGSAVIDSHGFTLAFRERQKLFDADSLLLFPGEIAALVGDNGCGKSTLLKSLAGIQADIDPLGIKVFGKKPKLGRFGADLALLHQRPSRQLFENTVIEEMQFSLKRFGLPLERAIELLGQLGLTTLARHSPHTLSYGQQHLIALASLACLRPKLLLLDDPFAGLDEHFTDKIVALLTELSRQGTALVIASHRPIAALPVDRLWRVVDGRLESLSASPQAYSRVG”, the “soluble on expression in E. coli” value is listed as “not soluble”. The result for “MSLSYLPGTTFEGQWESLYFGNNIKERLYSYATISLKIARFKQTGDSNQEDITTLITNNKLLLVHGPPGTGKTTLCKALCQKLSVRREFSDGSDTIDTNYKGIIIELSCARIFSKWFGESSKNISIVFKDIEELLKVNEGRGIFICLLIDEVEAIASSRTNLSSRNESTDGIRVVNTLLTQLDRLKKYHNFLALATSNLLDSLDDAFVDRADGVFYVGNPTAEGILHILKVCIEEMITSGIILFHARSTGVKFFNKYQDILRKIAIKCSVCFFLLFYFYDSFSFFPSEGHHHHHH” reads “soluble”. For “MGSDKIHHHHHHMTVCVAVKVQDCIVFAADSTTSLQAVGANGEHVTMNTYDHANKLFNLRKGCPVAAMTAGIGNFGGSSISTVSKDFRSLIDRRAEGYALNWENYTIEEIVGLARKYFFEERFSSLSEKPQGSFQYWVGGYSSGEQMGEVWQFQIHNGECLEPQCSISRNVASGLAWGGAPEAINRLILGYGQRIGDALVEGGLDASLVPQAIDGIARYTQCSLVHAAMPTGDAIDLAKFLAETTKQFVRFMPGSNSVGGDLDIATITKHENFKWIARKHFYNTRINPLETNHA” the value was “not soluble”.
